Measurements from publication PMC4987244 (Cancer research, 2016).
Where a chain is given by its changes, count along the chain named. Names may count otherwise. Where two headings read alike, the source gives them in different places.

T1: HA-tagged PRL1 expressed in HEK293 cells, Q93096
T1 chain: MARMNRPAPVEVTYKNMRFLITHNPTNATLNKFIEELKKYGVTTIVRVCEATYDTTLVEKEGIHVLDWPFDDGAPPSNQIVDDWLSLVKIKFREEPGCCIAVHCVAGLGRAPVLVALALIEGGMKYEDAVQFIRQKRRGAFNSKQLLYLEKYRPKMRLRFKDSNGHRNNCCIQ

B1: HA-tagged PRL1 expressed in HEK293 cells, Q93096 1-173 (enzyme)
chain: T1 chain
B2: PRL1 (phosphatase of regenerating liver 1), recombinant wild type (enzyme)
chain: MNRPAPVEVTYKNMRFLITHNPTNATLNKFIEELKKYGVTTIVRVCEATYDTTLVEKEGIHVLDWPFDDGAPPSNQIVDDWLSLVKIKFREEPGCCIAVHCVAGLGRAPVLVALALIEGGMKYEDAVQFIRQKRRGAFNSKQLLYLEKYRPKMRLRF
B3: PRL1/Y14A, recombinant (enzyme)
chain: B2 chain with Y11A
B4: PRL1/F132A, recombinant (enzyme)
chain: B2 chain with F129A
B5: PRL2 (enzyme, UniProt Q12974 1-167, looked up)
chain: MNRPAPVEISYENMRFLITHNPTNATLNKFTEELKKYGVTTLVRVCDATYDKAPVEKEGIHVLDWPFDDGAPPPNQIVDDWLNLLKTKFREEPGCCVAVHCVAGLGRAPVLVALALIECGMKYEDAVQFIRQKRRGAFNSKQLLYLEKYRPKMRLRFRDTNGHCCVQ

What was measured:
[1] = target: T1, HA-tagged PRL1 expressed in HEK293 …; experiment: cross-linking; conditions: remark: other sources report otherwise
cross-linking = target: the molecule itself; experiment: cross-linking
[2] = target: the molecule itself

Row | Binder | stoichiometry N (cross-linking) | other results
1 | B1 |  | stoichiometry N [1]: 3
2 | B2 | 3 | 
3 | B3 | 3 | 
4 | B4 | 3 | 
5 | B5 |  | stoichiometry N [2]: 3
